How the values were obtained:
[1] = target: murine EphB4-Fc (murine) (UniProt P54761); test: ELISA: murine EphB4-Fc on protein A plates, biotinylated peptide detected with streptavidin-HRP
[2] = target: murine EphB4-Alkaline Phosphatase (murine) (UniProt P54761); test: competition ELISA: murine EphB4-AP binding to immobilised murine ephrin-B2-Fc
[3] = target: murine EphB4-Alkaline Phosphatase (murine) (UniProt P54761); test: ELISA binding curve: TNYL-RAW Fc immobilised, increasing volumes of murine EphB4 AP, OD405; one experiment

Chain of murine EphB4-Alkaline Phosphatase (murine) (P54761 16-539): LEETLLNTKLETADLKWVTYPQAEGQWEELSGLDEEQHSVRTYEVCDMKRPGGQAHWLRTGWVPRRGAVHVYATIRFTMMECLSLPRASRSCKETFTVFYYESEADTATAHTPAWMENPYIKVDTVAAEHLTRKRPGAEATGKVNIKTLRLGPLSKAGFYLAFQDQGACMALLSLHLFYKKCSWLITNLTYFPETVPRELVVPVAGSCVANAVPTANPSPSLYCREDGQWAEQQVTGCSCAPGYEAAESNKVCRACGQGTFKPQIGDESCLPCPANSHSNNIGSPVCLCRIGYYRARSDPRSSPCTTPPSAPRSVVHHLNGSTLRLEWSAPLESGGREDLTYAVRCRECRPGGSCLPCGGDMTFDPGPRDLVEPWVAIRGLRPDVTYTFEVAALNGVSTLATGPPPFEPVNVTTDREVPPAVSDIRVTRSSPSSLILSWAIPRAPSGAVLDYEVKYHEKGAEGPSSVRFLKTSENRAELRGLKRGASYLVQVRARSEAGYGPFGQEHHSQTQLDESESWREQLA
Chain of murine EphB4-Fc (murine) (P54761 16-539 limits assumed): as the sequence (P54761 16-539) above

TNYL-RAW-biotin coupled to monofunctional 10 kDa PEG (monomer) (peptide)
Kd [1]: 1.4 nM
IC50 [2]: 21 nM

PEG 10 kDa-linked TNYL-RAW-biotin dimer (peptide)
Kd [1]: 0.9 nM
IC50 [2]: 9 nM

PEG 3.4 kDa-linked TNYL-RAW-biotin dimer (peptide)
Kd [1]: 0.9 nM
IC50 [2]: 7 nM

TNYL-RAW Fc fusion protein
Kd [3]: 10 nM

From patent publication US20100150834A1, “HIGH AFFINITY EPHB RECEPTOR BINDING COMPOUNDS AND METHODS OF USE THEREOF” (priority 2006, published 2010)
